From patent US20190170753A1 (ICAHN SCHOOL OF MEDICINE AT MOUNT SINAI, published 2019)

Legend:
Experiment in all cases: peptide EIA, 2 ug/mL IgG;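 note: purified mouse IgG binding to individually well-coated synthetic peptides, detected with peroxidase anti-mouse IgG Fc and o-phenylenediamine, IgG incubated at least 1 h at room temperature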
[1] = molecular target: T1, HCV core peptide 2 (hepatitis C virus, N-terminal biotin; C-terminal amide)
T1 construct: range 3-17
Description: (§1) The coated plates were kept dry in a sealed foil pouch and stored at <10 degrees C. until ready for use. A peptide coated plate for each test antibody was blocked using 3% BSA in PBS with 0.5% Tween 20. The blocked plates were washed with distilled water and a 2 ug/mL solution of purified IgG from each test sample diluted in BSA block solution was added to each peptide coated well of the blocked plate and allowed to incubate at room temperature for at least one hour. Following incubation the plates were washed with distilled water. A 200 ng/mL solution of peroxidase labeled F(ab′)2 fragment goat anti-mouse IgG Fc fragment specific (Jackson Immunoresearch) in BSA block solution was added to all wells and incubated at room temperature for 30 minutes. The plates were washed with distilled water and o-phenylenediamine substrate was used as the chromagen to generate signal. Plates were read at 492 nm and the results were analyzed.

[2] = molecular target: T2, HCV core peptide 6 (hepatitis C virus, N-terminal biotin; C-terminal amide)
T2 construct: range 11-25
Description: as §1

[3] = molecular target: T3, HCV core peptide 7 (hepatitis C virus, N-terminal biotin; C-terminal amide)
T3 construct: range 13-27
Description: as §1

[4] = molecular target: T4, HCV core peptide 16 (hepatitis C virus, N-terminal biotin; C-terminal amide)
T4 construct: range 31-45
Description: as §1

[5] = molecular target: T5, HCV core peptide 17 (hepatitis C virus, N-terminal biotin; C-terminal amide)
T5 construct: range 33-47
Description: as §1

[6] = molecular target: T6, HCV core peptide 18 (hepatitis C virus, N-terminal biotin; C-terminal amide)
T6 construct: range 35-49
Description: as §1

[7] = molecular target: T7, HCV core peptide 23 (hepatitis C virus, N-terminal biotin; C-terminal amide)
T7 construct: range 45-59
Description: as §1

[8] = molecular target: T8, HCV core peptide 24 (hepatitis C virus, N-terminal biotin; C-terminal amide)
T8 construct: range 47-61
Description: as §1

[9] = molecular target: T9, HCV core peptide 25 (hepatitis C virus, N-terminal biotin; C-terminal amide)
T9 construct: range 49-63
Description: as §1

[10] = molecular target: T10, HCV core peptide 26 (hepatitis C virus, N-terminal biotin; C-terminal amide)
T10 construct: range 51-65
Description: as §1

[11] = molecular target: T11, HCV core peptide 28 (hepatitis C virus, N-terminal biotin; C-terminal amide)
T11 construct: range 55-69
Description: as §1

[12] = molecular target: T12, HCV core peptide 35 (hepatitis C virus, N-terminal biotin; C-terminal amide)
T12 construct: range 69-83
Description: as §1

[13] = molecular target: T13, HCV core peptide 40 (hepatitis C virus, N-terminal biotin; C-terminal amide)
T13 construct: range 79-93
Description: as §1

[14] = molecular target: HCV core peptide 44 (hepatitis C virus, N-terminal biotin; C-terminal amide)
Description: as §1

[15] = molecular target: HCV core peptide 47 (hepatitis C virus, N-terminal biotin; C-terminal amide)
Description: as §1

[16] = molecular target: T14, HCV core peptide 49 (hepatitis C virus, HELM PEPTIDE1{[O=C1N[C@H]2[C@H](CS[C@H]2CCCCC(=O)[*:2])N1].S.G.S.G.L.L.S.P.R.G.S.R.P.S.W.G.P.T.D.[am]}$$$$V2.0; SMILES …)
T14 peptide: SGSGLLSPRGSRPSWGPTD
Description: as §1

[17] = molecular target: T15, HCV core peptide 51 (hepatitis C virus, HELM PEPTIDE1{[O=C1N[C@H]2[C@H](CS[C@H]2CCCCC(=O)[*:2])N1].S.G.S.G.R.G.S.R.P.S.W.G.P.T.D.P.R.R.R.[am]}$$$$V2.0; SMILES …)
T15 peptide: SGSGRGSRPSWGPTDPRRR
Description: as §1

[18] = molecular target: T16, HCV core peptide 53 (hepatitis C virus, HELM PEPTIDE1{[O=C1N[C@H]2[C@H](CS[C@H]2CCCCC(=O)[*:2])N1].S.G.S.G.P.S.W.G.P.T.D.P.R.R.R.S.R.N.L.[am]}$$$$V2.0; SMILES …)
T16 peptide: SGSGPSWGPTDPRRRSRNL
Description: as §1

[19] = molecular target: T17, HCV core peptide 54 (hepatitis C virus, HELM PEPTIDE1{[O=C1N[C@H]2[C@H](CS[C@H]2CCCCC(=O)[*:2])N1].S.G.S.G.W.G.P.T.D.P.R.R.R.S.R.N.L.G.K.[am]}$$$$V2.0; SMILES …)
T17 peptide: SGSGWGPTDPRRRSRNLGK
Description: as §1

[20] = molecular target: T18, HCV core peptide 62 (hepatitis C virus, N-terminal biotin; C-terminal amide)
T18 construct: range 123-137
Description: as §1

[21] = molecular target: T19, HCV core peptide 68 (hepatitis C virus, N-terminal biotin; C-terminal amide)
T19 construct: range 135-149
Description: as §1

[22] = molecular target: HCV core peptide 70 (hepatitis C virus, N-terminal biotin; C-terminal amide)
Description: as §1

[23] = molecular target: T20, HCV core peptide 72 (hepatitis C virus, N-terminal biotin; C-terminal amide)
T20 construct: range 143-157
Description: as §1

[24] = molecular target: HCV core peptide 74 (hepatitis C virus, N-terminal biotin; C-terminal amide)
Description: as §1

[25] = molecular target: T21, HCV core peptide 79 (hepatitis C virus, N-terminal biotin; C-terminal amide)
T21 construct: range 157-171
Description: as §1

[26] = molecular target: T22, HCV core peptide 83 (hepatitis C virus, N-terminal biotin; C-terminal amide)
T22 construct: range 165-179
Description: as §1

[27] = molecular target: HCV core peptide 85 (hepatitis C virus, N-terminal biotin; C-terminal amide)
Description: as §1

[28] = molecular target: HCV core peptide 87 (hepatitis C virus, N-terminal biotin; C-terminal amide)
Description: as §1

[29] = molecular target: HCV core peptide 88 (hepatitis C virus, N-terminal biotin; C-terminal amide)
Description: as §1

[30] = molecular target: HCV core peptide 89 (hepatitis C virus, N-terminal biotin; C-terminal amide)
Description: as §1

B1: Neo4 mouse monoclonal antibody (antibody, V domains shown)
VH: QIQLKESGPAVIKPSQSLSLTCIVSGFSITSSVYCWQWIRQPPGKGLEWMGRICYDGSVDYSPSITSRGTISRDTSLNKVFFQLSSVTNEDTAMYYCSRENHIDYYDTTYPSFDVWGAGTTVTVSS
VL: DIVLTQSPASLIVSLGQRATISCRASKSVNEYGYTYMHWYQQKPGLPPKLLIYLASNLDSGVPARFSGSGSGTDFTLNIHPVEEEDAATYYCQHSRELPYTFGGGTKLEIKR
notes: Mouse hybridoma antibody, isotype IgG1, purified with Protein G; also called HCV Neo4
OD (A492 nm) [1]: 0.06 OD
OD (A492 nm) [2]: 0.06 OD
OD (A492 nm) [3]: 0.07 OD
OD (A492 nm) [4]: 0.06 OD
OD (A492 nm) [5]: 0.04 OD
OD (A492 nm) [6]: 0.05 OD
OD (A492 nm) [7]: 0.05 OD
OD (A492 nm) [8]: 0.05 OD
OD (A492 nm) [9]: 0.04 OD
OD (A492 nm) [10]: 0.04 OD
OD (A492 nm) [11]: 0.04 OD
OD (A492 nm) [12]: 0.04 OD
OD (A492 nm) [13]: 0.05 OD
OD (A492 nm) [14]: 0.05 OD
OD (A492 nm) [15]: 0.05 OD
OD (A492 nm) [16]: 0.05 OD
OD (A492 nm) [17]: 0.96 OD
OD (A492 nm) [18]: 0.96 OD
OD (A492 nm) [19]: 1.01 OD
OD (A492 nm) [20]: 0.05 OD
OD (A492 nm) [21]: 0.04 OD
OD (A492 nm) [22]: 0.04 OD
OD (A492 nm) [23]: 0.04 OD
OD (A492 nm) [24]: 0.05 OD
OD (A492 nm) [25]: 0.05 OD
OD (A492 nm) [26]: 0.05 OD
OD (A492 nm) [27]: 0.05 OD
OD (A492 nm) [28]: 0.05 OD
OD (A492 nm) [29]: 0.05 OD
OD (A492 nm) [30]: 0.05 OD
